Reference: the DeepSol protein solubility set

Assay: soluble on expression in E. coli; label from the status in PepcDB or PDB records

| Sequence | soluble on expression in E. coli |
| --- | --- |
| MGSDKIHHHHHHMAVWNANEMPERDRFPYWREVLCEAYIALNPILEGEQRFKGEVKANLLDCINVTTISSSRQKIHRRRLDISRMPHEVYFLNLQVKGQCRMMQGSREALLEPGDFSLVDSTEPYLNDYCSDDWTQYSFRIPRAMLKPLLKQADKQTAIRFTSAHPIASVAIDYLKSVAQNAEHIGTASTPIANHIVDLVAMAAGVSTTEEDRARGTLRSQLSRSVIQFIGAHAADPTLTPAKAAQHFKISVRYVHRLLEESGETFSRLLLKRRLERCADDLRAEAAISISEIAFRWGFNDLSHFSKTFRHHFGVAPRDYRGQ | not soluble |
| VADTDGHYRVRAITEISSFNETLGATFSDKEFDTIGGLVINKFGRLPKNGESITIEGFNFTVTRADSRRLHLLKVERIEPGVVEDADSHDSV | not soluble |
| MGFLPISLLHLVIKLLKNSLRKSSRELKDNFYDEPYIVLSELRELKTYFSILSAIAAGKRKPSEMANEVDLEGRKIHSYIETLIRLGFVERDLLVARKEKRWLYIISDPMLMSWFSLVYPKRTEIEIGAMTIDDVKEILQRIFSFRFEQVSREFLIELNRKGNLPFRFTKIGRWWHKEEEIDIVALNEKEKKSLLIEIKWKELKEREIKGILNDLELEGWDKIYGVIAKKVQKKENLWERGFLIWDLEDLDVLAAALEHHHHHH | not soluble |
| MGSDKIHHHHHHMQDKVIPSLSAAIAKEVERRTQGVDWCETEIAGLDFYRQSAPTSCSVCVVEPSIALVVQGAKAMTLGEQTFRYDPSRFLITSLDLPAKMQVLEASEEAPYLGVVIKLDLAVMSDLMLQTPLTMQKETASDQGMILGATTPKLLGAISRLVNLLDEPESIAVLAPLIKREIYWRVLMSEQGARLRQIVSAGSHGLRIARTIEWLKVHYDQHLSVDSLADMARMSKSTFHHHFRRLTSMSPLQYQKRLRLLEARRLMLGEDIDASAAAYRVGYESPSQFSREYSRLFGASPKKDVATQWQ | not soluble |
| MEAKQTVFVNEFTNGILDPHGNMLGPVQDGGYIVANTTPGCWGPMITPCIRGGHEVTKPVFVEGAEVGDAIAIKIKSIRVTSIATSSGNDKPMEGRFVGDPFVAVKCPQCGTMYPETKIEGIGPEAIRCANCGADVTPFVFTNGYTMTFDPNRQIGVTVHKEAAEHIARQGRYYMATPDNSVQNPIVTFAPHDLVGTVARLRPFLGQLGTTPARPLPDSHNAGDFGQFLINAPHEYGITKEQLEDRTDGHMDINRVREGAVLICPVKVRGGGVYLGDMHAMQGDGEIAGHTTDVSGIVTLQVKVIKGLTIDGPILLPVAEDLPYLAKPLTKKEKEIALDLAQSWGVDKLEESLPISFVGTGANLNEATENGLQRAAKTLGISVPEVMNRATITGAIEIGRHPGVITVTFLCPIRYLDKISLTSLVYDQYRSVLE | not soluble |
| MSEQLNADRPKTRRKEPAGRGSASEQKILAAAKELFLADRYDGVNLERIAARAGVSRQTVYNRFGSKETVFREMVRHHWSAFAGPGRDIAECGPDASAEEVLRGFAQSLQRFATETDQIRFAQLVVTESARLPWIADEFYRLGKGPVVVTFADCLDSLVRRGLLRCPDTHLAARQFTGLVQEFLVWPRVMAFEEEVAGQAPPEVVIEEAVLTFLARYAPAADGPGQSV | not soluble |
| MGSDKIHHHHHHMERNTRVVKVANLKIGGNNPIIIQSMTNTNSADVEATVKQINNLEKVGCQLVRMTINNIKAAEAIKEIKKKVSLPLVADIHFDYRLALLAIKNGIDKLRINPGNIGSDENVKKVVEAAKEKNIPIRIGVNSGSIEKEILEKYGKPCVDALVESAMYHIRLLEKFDFFDIIVSLKSSNVKMMVEAYRKISSLVDYPLHLGVTEAGTKFQGTVKSAIGIGALLVDGIGDTLRVSLTENPVEEIKVAKEILKVLDLSDEGVEIISCPTCGRTEIDLIGLAKQVEEEFRTKKNKFKIAVMGCVVNGPGEAREADYGIAAGRGIGILFKKGEIIKKVSESNLLEELKKMISEDLENKKD | not soluble |
| MRIPFPSIKYPLIAILRGLKPEETEGVVGALIETGFRAIEIPLNSPDPFRSIEIAARMAPADCLIGAGTVLSVEDVASLDAAGGKLMVSPNADAEVITAAREKGMVTMPGVLTPTEALVAAKAGATGLKFFPASIIGPSGINAIRTILPKELIIAAVGGVSDKNFSDYTSAGIRAFGLGTSLYKPGMTAAEVRERATVTLAAYDAAIGG | not soluble |
| MHLCGVDYYQIDKQGSCKFRFKATQFYRALKNNKVSLRGIKPKDDGTTGQKLQVIPLLEMLISPGVRICDGGKFYNLQYEKAIRSGKMIVALTCKENNKKYVPQSLLSLINQPRKSQSKSLTESHEVIKISKSELNSTSVIEVYDKF | not soluble |
| MLVLIRVFNTLGRRKEVFNPYSPPLVGMYVCGPTVYDYTHIGHARTFTVFDAIKRYLRLRGYDVFHVQNITDIDDKIINRAREEGRDWREIVREYSRDYLEGLGSLGIQIDHHPRVTDHISDIIRFIEGLIEKGYAYVAESGSVYFEVDKYPGYGMLSGHLSKEAWRQEEDVLHEKKSPYDFALWKAAKPGEPSWESPWGRGRPGWHIECSVMSSRYLGSRIDIHGGGVDLVFPHHENERAQSESYFGHRWVRYWLHASYLTIKGEKMSKSLGNIIPLREALREWGPGPLRLWLLSSHYRSNLDYSEEALGQYRRLYERLRQAADSIGRRLERAEPKGRLGEGELETVERLKGVVRRWHEAMSDDFNMGKAMSSLWEFTTIYFREVEQTESYTLLWLSWRILTGFNSVYAFAPDIVEARRPERSLEDSLVQALVDVRSELRRRKMYDLADEIRSRLAQLGFVLHDKGEKTEWRRR | soluble |
| MGSDKIHHHHHHMINRKPFFIELELTYKCSQQCIYCHNPPKDLKFYIADKVPKPRSVIEMNELNLSEWISVINQIKRLDEKYEGIMDVVITGGEPLLRSDLEEILSYVTRQKLRHMLLSSGEPISDDRITKLLESGLEKIRINLTSHKYVFNIQSPIMHIKNEVAKKINIAKKFKDFGVKEVGGNIVLTSYYLDFLEEIAELAYKSNLDWIEIHSVIKVGHGYINQKFIVPDPNDERTIQEKLKRLIEIYGENFIQNYVDTDILYSRIPIPTNWGEVGLVIAPNGDIYPSSEATSIPLSKLGNIKNDSLVEIWFNNLLLNKIRSLSFLREPCKSCEVKKLCRGGFRFNAYITKNDLFAPDPSCQIVKDYIGKS | not soluble |
| MDALQAYGGSDSEHSDDDASMDQVAKGKSSTLLERAIVTAPDVESKSAIRQVAIVDPKTKEIKSNPKFDQLFKPESGPVNHFKSEQQRSQKNTLTGFVEPAHLNEFHFNRQIRSFDTLGYAQNPTAESGTTHFVGDVKKAEAEKGVSLFESKKTGGEKRKRVRNDDSADIDGYTGPWSRFIDEKTVAKPTPELQKQMDEIVKKRQEKSRRFKKEKEDSEQMAEESSTLHLKEAEDYQGRSFLVPPSFTGVNLREDYVPERCFVPKKLVHTYRGHNKGVNFLQWFPKSAHLFLSCSMDTKIKLWEVYDRQRVVRTYAGHKLPVREVAFNNEGTEFLSASFDRYVKLWDTETGQVKQRFHTGHVPYCLKYHPDDDKNHMFLVGMQNKKIIQWDSRSGEIVQEYDRHLQAVNSITFFDKNRRFASTSDDKSVRIWEWEIPVDTKLIQNVGLHAIPTMTKSPNDKWVVGQCMDNRIVLFQLVDDKLRFSKKKAFRGHNAAGYACNIDFSPDQSFLISGDADGKLFIWDWRTHKIVGKWKAHDSTCIAALWHPHEKSRMITAGWDGLIKMWN | soluble |
| SLRFVDEYRAPEQVMQLIEHLRERASHLSYTAERPLRIMEVCGGHTHAIFKFGLDQLLPENVEFIHGPGCPVCVLPMGRIDTCVEIASHPEVIFCTFGDAMRVPGKQGSLLQAKARGADVRIVYSPMDALKLAQENPTRKVVFFGLGFETTMPTTAITLQQAKARDVQNFYFFCQHITLIPTLRSLLEQPDNGIDAFLAPGHVSMVIGTDAYNFIASDFHRPLVVAGFEPLDLLQGVVMLVQQKIAAHSKVENQYRRVVPDAGNLLAQQAIADVFCVNGDSEWRGLGVIESSGVHLTPDYQRFDAEAHFRPAPQQVCDDPRARCGEVLTGKCKPHQCPLFGNTCNPQTAFGALMVSSEGACAAWYQYRQQESEA | soluble |
| MSLFPAELMVVRKAQDGTIRPLMIAPDHVDIAEKVIEIYRSSAGRTRKEISKDIVTIEYGIKNPKIVRGLALIMDRMSTFRNRSRVDSKQLRGFLFQMGPAVSPEERQEKIALAAEHFSVSPQDIEEAIYGDMDSENVLDQCPSITPEHLNRRYNLEQLTTLMYRSKFIEVSGINNWYRFISLIKRQGLVFEAQGNPLMSVRIDGPNSVFNNMERYGSSMARVVERLTAFPGWKLHAEVEIKDRVYSVDLDSSISYYLPETDIEEEEAIPDPVVIGTRVFFPTRIINVHGQDVYVDIVYHMSPEAIKRRDEMIRSSGIKWITAVVGECKKFQGVLCFRNRVDWDAIIAKASEEYPATTDALREEIDRLYPNTEAILDLLDSRSIPLSHLEKIGYRIKWNGILPEIVRSTEGHHHHHH | soluble |
| GHMQEKPPKELVNEWSLKIRKEMRVVDRQIRDIQREEEKVKRSVKDAAKKGQKDVCIVLAKEMIRSRKAVSKLYASKAHMNSVLMGMKNQLAVLRVAGSLQKSTEVMKAMQSLVKIPEIQATMRELSKEMMKAGIIEEMLEDTFESMDDQEEMEEEAEMEIDRILFEITAGALGKAPSKVTDALPEPEPPGAMAASEDEEEEEEALEAMQSRLATLRS | soluble |
| PREFVLRPAPQGRTVRCRLTRDKKGMDRGMYPSYFLHLDTEKKVFLLAGRKRKRSKTANYLISIDPTNLSRGGENFIGKLRSNLLGNRFTVFDNGQNPQRGYSTNVASLRQELAAVIYETNVLGFRGPRRMTVIIPGMSAENERVPIRPRNASDGLLVRWQNKTLESLIELHNKPPVWNDDSGSYTLNFQGRVTQASVKNFQIVHADDPDYIVLQFGRVAEDAFTLDYRYPLCALQAFAIALSSFD | soluble |
| MGSDKIHHHHHHMFTQVYEEIRQLTISKVLDFYDHEVRRLDEAARQTKYQKMSASPFLFFRGSSHLFYYDVTRIPLGFDTPPETPTWIQGDLHFENFGVHGNAKGEIIYDVNDFDEGYLGSYLYDLIRMAVSVQLFAEEAGYDAKPAIAAYVQHYLDDLRQYAKGKNPSKVCFTTDNTKGPIRKLIKKAEKKKAELLGERTTVVDGQRRFADLPDMKRLDSSAYTAIEAVWPEYIASIDAEDRQEDGFYAIKDIVYKLDSGTASIGLERYYILVEGTGGEHEDLILEMKQAQSSVPSLFVPAYLQEVETVHQGRRIVTSQKAMQAHEDPYLGYVTMHGKEYYVRERSPYKKKLKAKHIKSQDDLENVLSIQGQITAKIHARADMDAGVDVDILHHHADVVIIESIGVSDAEFIRQIQRWSSAYAARTTLDFQVFLSWLANR | not soluble |
| MGSDKIHHHHHHMSAPDSAPGTERGHERTHFAVVGDSQDPAQATAPRAPAESITLIGIGTDGFEGLGLKAQQALQRASVVIGSWRQLNLVPDAIKAERRPWPGNTKHPDLDALFKEFLGRHVAVLASGDPLFYGVGTAMVHVLGMDRLTVIPGPSSASLACARLGWTVNRTRVVYLGQEPIETLIPIIESGAQFLVLGKDEFSTAQVATLLNELGLGETPLTVLSDLGSTDEEITQGTASHPPAAVSVLNVIAVGARTAMPKPHFEGDVSNEDLRALTVAALEPTQGQMLWTFGDIGAALACDWLRAAGNKAHAISFASMVEQSQRNARKLGVSTLSVKETLSPKTLKDIRYVQGPESASPHAIFMNKGLGIDLVPETAWMMLRPGGKLIAQASTEDNIAKLHTLQEQHGGIIKHIRIDDTDVHQWRVTKPVTPEAVN | not soluble |
| GPGSMGSEESNNICAYKRTISLAKIYIVLLVKTAMLRYSRLCFPKMGCEEIKRKARRVQLQPTEYLAQHRMQVWQLRFKEMGPPFSRVWVALGGKMRRRRVGRQVDVKDMRYYWRPIEPQYQRLYMSRLRIRDHSNKLRQPMRLRATNADIGSGSSSIEWERASNRKYGAMLAPPKRQDFEFRVV | not soluble |
